Test results reported in patent publication US20250296971A1, “GASTRIC INHIBITORY PEPTIDE RECEPTOR LIGANDS” (priority 2021, published 2025).
*1 amine or outer side, *2 acyl side, *3 side chain or, on linkers, in order; H or OH if unused. Bridges are numbered along the chain shown (N, C = ends). Primed or numbered codes have the meaning given here. [ ]: non-standard residue; d: D form. The star is where a group is joined. Ttds = 1,13-diamino-4,7,10-trioxatridecan-succinamic acid, NCCCOCCOCCOCCCNC(=O)CCC(=O)*; 2,6‑lutidylidene = 2Lut, Cys-Cys crosslink via 2,6-lutidylidene; tMeBn(DOTA-PP) = mesitylene bridge bearing DOTA via piperazine; dE(AGLU) = D-glutamic acid bearing 1-amino-1-deoxy-D-glucitol; MeO36PEG = monodisperse PEG 36 units conjugated with acetyl; Pro(trans-4-NH2) = O=C([C@@H]1C[C@@H](N[*:3])CN1[*:1])[*:2]; DOTA = O=C(O)CN1CCN(CC(=O)O)CCN(CC(=O)*)CCN(CC(=O)O)CC1; Trp(5-Cl) = N[C@@H](Cc1c[nH]c2ccc(Cl)cc12)C(=O)O; Trp(6-Cl) = N[C@@H](Cc1c[nH]c2cc(Cl)ccc12)C(=O)O; Phe(3,5-Cl2) = N[C@@H](Cc1cc(Cl)cc(Cl)c1)C(=O)O; Pyridine(2,6-diCH2) = c1cc(C[*:1])nc(C[*:2])c1; Trp(7-aza) = N[C@@H](Cc1c[nH]c2ncccc12)C(=O)O; 2Lut″ = 2,6-lutidylidene linking two thiols; APAc = 4-amino-1-carboxymethylpiperidine; 1Nal = N[C@@H](Cc1cccc2ccccc12)C(=O)O; mXylylene = c1cc(C[*:1])cc(C[*:2])c1; Glutaryl = O=C(CCCC(=O)[*:2])[*:1]; AGLU = 1-amino-1-deoxy-D-glucitol; dDap(NTASEROL) = not defined here; Hyp = O=C(O)[C@@H]1C[C@@H](O)CN1; Cysteamide = C(CS[*:3])N[*:1]; hLeu = CC(C)CC[C@H](N)C(=O)O; NTASEROL = not defined here; dDab = NCC[C@@H](N)C(=O)O; hCys = N[C@@H](CCS)C(=O)O; Api = NC1(C(=O)O)CCNCC1; Thp = NC1(C(=O)O)CCOCC1; Aib = CC(C)(N)C(=O)O; mli″ = maleimide

B1: AGLU-Glutar-APAc-Hse-Trp-5Clw-Tap-Glu-leu-[Cys(2Lut)-Apc(DOTA)-Leu-Ile-Cys]-APAc-glu(AGLU)-NH2 (peptide)
peptide: XWXXEXCXLIC
modifications: N-term AGLU-Glutar-APAc; Hse; 5Clw; Tap; leu (D-Leu); thioether cycle [Cys(2Lut)..Cys]; Apc(DOTA); C-term APAc-glu(AGLU)-NH2
B2: Ac-Asp-Egn-5Clw-Hyp-Glu-leu-[Cys(2Lut)-Thp-Leu-Ile-Cys]-NH2 (peptide)
peptide: Ac-D[Phe(3,5-Cl2)][Trp(5-Cl)][Hyp]E[dL]C[Thp]LIC-NH2
modifications: linker 7-11 via Pyridine(2,6-diCH2)
SMILES: CC[C@H](C)[C@@H]1NC(=O)[C@H](CC(C)C)NC(=O)C2(CCOCC2)NC(=O)[C@@H](NC(=O)[C@@H](CC(C)C)NC(=O)[C@H](CCC(=O)O)NC(=O)[C@@H]2C[C@@H](O)CN2C(=O)[C@H](Cc2c[nH]c3ccc(Cl)cc23)NC(=O)[C@H](Cc2cc(Cl)cc(Cl)c2)NC(=O)[C@H](CC(=O)O)NC(C)=O)CSCc2cccc(n2)CSC[C@@H](C(N)=O)NC1=O

Columns and labels:
[1] = target: human Gastric Inhibitory Peptide Receptor (GIPR) (human) (UniProt P48546); assay: FACS competition vs biotinylated GIP-057 on CHO-K1-hGIPR cells; category B: pIC50 7.1-8.0
[2] = target: human Gastric Inhibitory Peptide Receptor (human) (UniProt P48546); assay: FACS competition with GIP-057 on CHO-K1-hGIPR cells; pIC50 category B: 7.1-8.0
[3] = target: biotinylated extracellular domain of the human GIP receptor (bioGIPR) (human) (UniProt P48546); assay: SPR single cycle kinetics, bioGIPR captured on chip; category A: t1/2 >15 min
[4] = target: human Gastric Inhibitory Peptide Receptor (GIPR) (human) (UniProt P48546); assay: FACS competition vs biotinylated GIP-057 on CHO-K1-hGIPR cells; category A: pIC50 >8.0
[5] = target: biotinylated extracellular domain of the human GIP receptor (bioGIPR) (human) (UniProt P48546); assay: SPR single cycle kinetics, bioGIPR captured on chip; category A: pKD >9.0

human Gastric Inhibitory Peptide Receptor (human), sequence (P48546 22-466 limits assumed): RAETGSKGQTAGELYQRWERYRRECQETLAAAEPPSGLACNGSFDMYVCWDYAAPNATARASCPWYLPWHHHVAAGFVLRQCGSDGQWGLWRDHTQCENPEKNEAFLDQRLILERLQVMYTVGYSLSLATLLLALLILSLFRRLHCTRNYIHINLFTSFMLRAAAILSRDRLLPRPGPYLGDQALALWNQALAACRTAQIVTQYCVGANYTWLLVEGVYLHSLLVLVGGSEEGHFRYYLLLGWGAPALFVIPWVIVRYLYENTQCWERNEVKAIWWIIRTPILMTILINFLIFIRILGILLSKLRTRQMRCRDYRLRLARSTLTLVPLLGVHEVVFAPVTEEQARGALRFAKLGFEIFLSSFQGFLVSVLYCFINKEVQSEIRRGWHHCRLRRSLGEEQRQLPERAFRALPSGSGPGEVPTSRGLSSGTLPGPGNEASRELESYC
human Gastric Inhibitory Peptide Receptor (GIPR) (human), sequence (P48546 22-466 limits assumed): as above
biotinylated extracellular domain of the human GIP receptor (bioGIPR) (human), sequence (P48546 24-138 limits assumed): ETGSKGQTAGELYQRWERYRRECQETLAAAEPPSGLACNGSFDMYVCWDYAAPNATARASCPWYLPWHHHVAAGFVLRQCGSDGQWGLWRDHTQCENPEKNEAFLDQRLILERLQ

Molecule	pIC50 [1] [pic50]	pIC50 [2] [pic50]	other results
Ac-Asp-Trp-5Clw-Hyp-Glu-leu-[Cys(2Lut)-Apc(DOTA)-Leu-Phe-Cys]-NH2 (peptide)	7.1 to 8	–	–
DOTA-Ttds-Nmd-Trp-Trp-Pro-Glu-Leu-[Cys(3MeBn)-Aib-Leu-Ile-AET] (peptide)	–	7.1 to 8	–
Ac-DW[Trp(7-aza)][Hyp]E[dL]C[Thp]LIC-NH2 (linker 7-11 via 2Lut″) [Ac-Asp-Trp-7Nw-Hyp-Glu-leu-[Cys(2Lut)-Thp-Leu-Ile-Cys]-NH2]	7.1 to 8	–	–
{DOTA-Ttds}-D[Trp(6-Cl)]WPE[dL]C[Aib]LI[Cysteamide] (linker 7-11 via mXylylene) [DOTA-Ttds-Asp-6Clw-Trp-Pro-Glu-leu-[Cys(3MeBn)-Aib-Leu-Ile-AET]]	–	7.1 to 8	–
{MeO36PEG-APAc}-DW[Trp(5-Cl)][Pro(trans-4-NH2)]E[dL]C[Api](DOTA)LIC-{APAc-dE(AGLU)-NH2} (linker 7-11 via Pyridine(2,6-diCH2)) [MeO36PEG-APAc-Asp-Trp-5Clw-Tap-Glu-leu-[Cys(2Lut)-Apc(DOTA)-Leu-Ile-Cys]-APAc-glu(AGLU)-NH2]	–	7.1 to 8	–
Ac-DW[Phe(2,3-Cl2)][Hyp]E[dL]C[Thp]LIC-NH2 (linker 7-11 via 2Lut″) [Ac-Asp-Trp-Egp-Hyp-Glu-leu-[Cys(2Lut)-Thp-Leu-Ile-Cys]-NH2]	7.1 to 8	–	–
Ac-DW[Trp(5-Cl)][Hyp]F[dL]C[Thp]LIC-NH2 (linker 7-11 via Pyridine(2,6-diCH2)) [Ac-Asp-Trp-5Clw-Hyp-Phe-leu-[Cys(2Lut)-Thp-Leu-Ile-Cys]-NH2]	7.1 to 8	–	–
Ac-DW[Trp(5-Cl)][Pro(trans-4-NH2)](DOTA)E[dL]C[Thp]LFC-NH2 (linker 7-11 via 2Lut″) [Ac-Asp-Trp-5Clw-Tap(DOTA)-Glu-leu-[Cys(2Lut)-Thp-Leu-Phe-Cys]-NH2]	7.1 to 8	–	–
B1	–	7.1 to 8	–
Ac-DW[Trp(5-Cl)][Hyp]E[dL]C[Thp]LIC-NH2 (linker 7-11 via tMeBn(DOTA-PP)) [Ac-Asp-Trp-5Clw-Hyp-Glu-leu-[Cys(tMeBn(DOTA-PP))-Thp-Leu-Ile-Cys]-NH2]	–	7.1 to 8	–
{AGLU-Glutaryl}-DW[Trp(5-Cl)][Pro(trans-4-NH2)]E[dL][dC][Api](DOTA)LIC-{APAc-dE(AGLU)-NH2} (linker 7-11 via Pyridine(2,6-diCH2)) [AGLU-Glutar-Asp-Trp-5Clw-Tap-Glu-leu-[cys(2Lut)-Apc(DOTA)-Leu-Ile-Cys]-APAc-glu(AGLU)-NH2]	–	7.1 to 8	–
{NTASEROL}-DW[Trp(5-Cl)][Pro(trans-4-NH2)]E[dL]C[Api](DOTA)LIC-{APAc-dDap(NTASEROL)-NH2} (linker 7-11 via Pyridine(2,6-diCH2); reading uncertain) [NTASEROL-Asp-Trp-5Clw-Tap-Glu-leu-[Cys(2Lut)-Apc(DOTA)-Leu-Ile-Cys]-APAc-dap(NTASEROL)-NH2]	–	–	t1/2 [3]: > 15 min; pIC50 [4]: > 8 pic50; pKD [5]: > 9 pkd
Ac-DW[Phe(3,5-Cl2)][Hyp]E[dL]C[Thp]LIC-NH2 (linker 7-11 via 2Lut″) [Ac-Asp-Trp-Egn-Hyp-Glu-leu-[Cys(2Lut)-Thp-Leu-Ile-Cys]-NH2]	7.1 to 8	–	–
Ac-DW[1Nal][Pro(trans-4-NH2)](DOTA)E[hLeu]C[Aib]LIC-NH2 (linker 7-11 via mXylylene) [Ac-Asp-Trp-1Ni-Tap(DOTA)-Glu-Hle-[Cys(3MeBn)-Aib-Leu-Ile-Cys]-NH2]	7.1 to 8	–	–
B2	7.1 to 8	–	–
Ac-DW[Trp(5-Cl)][Hyp]E[dL]C[Thp]LFC-{(dK)(DOTA)-NH2} (linker 7-11 via Pyridine(2,6-diCH2)) [Ac-Asp-Trp-5Clw-Hyp-Glu-leu-[Cys(2Lut)-Thp-Leu-Phe-Cys]-lys(DOTA)-NH2]	7.1 to 8	–	–
{AGLU-Glutaryl}-DW[Trp(5-Cl)][Pro(trans-4-NH2)]E[dL]C[dDab](DOTA)LIC-{APAc-dE(AGLU)-NH2} (linker 7-11 via 2,6‑lutidylidene) [AGLU-Glutar-Asp-Trp-5Clw-Tap-Glu-leu-[Cys(2Lut)-dab(DOTA)-Leu-Ile-Cys]-APAc-glu(AGLU)-NH2]	–	7.1 to 8	–
Ac-DW[Trp(5-Cl)][Hyp]E[dL][hCys][Thp]LIC-NH2 (linker 7-11 via mli″) [Ac-Asp-Trp-5Clw-Hyp-Glu-leu-[Hcy(mli)-Thp-Leu-Ile-Cys]-NH2]	7.1 to 8	–	–
